B1: Hsp110: human Hsp110 over-expressed from an expression vector in McArdle cells (protein, UniProt Q92598 2-858, looked up)
Heat shock protein 105 kDa: SVVGLDVGSQSCYIAVARAGGIETIANEFSDRCTPSVISFGSKNRTIGVAAKNQQITHANNTVSNFKRFHGRAFNDPFIQKEKENLSYDLVPLKNGGVGIKVMYMGEEHLFSVEQITAMLLTKLKETAENSLKKPVTDCVISVPSFFTDAERRSVLDAAQIVGLNCLRLMNDMTAVALNYGIYKQDLPSLDEKPRIVVFVDMGHSAFQVSACAFNKGKLKVLGTAFDPFLGGKNFDEKLVEHFCAEFKTKYKLDAKSKIRALLRLYQECEKLKKLMSSNSTDLPLNIECFMNDKDVSGKMNRSQFEELCAELLQKIEVPLYSLLEQTHLKVEDVSAVEIVGGATRIPAVKERIAKFFGKDISTTLNADEAVARGCALQCAILSPAFKVREFSVTDAVPFPISLIWNHDSEDTEGVHEVFSRNHAAPFSKVLTFLRRGPFELEAFYSDPQGVPYPEAKIGRFVVQNVSAQKDGEKSRVKVKVRVNTHGIFTISTASMVEKVPTEENEMSSEADMECLNQRPPENPDTDKNVQQDNSEAGTQPQVQTDAQQTSQSPPSPELTSEENKIPDADKANEKKVDQPPEAKKPKIKVVNVELPIEANLVWQLGKDLLNMYIETEGKMIMQDKLEKERNDAKNAVEEYVYEFRDKLCGPYEKFICEQDHQNFLRLLTETEDWLYEEGEDQAKQAYVDKLEELMKIGTPVKVRFQEAEERPKMFEELGQRLQHYAKIAADFRNKDEKYNHIDESEMKKVEKSVNEVMEWMNNVMNAQAKKSLDQDPVVRAQEIKTKIKELNNTCEPVVTQPKPKIESPKLERTPNGPNIDKKEEDLEDKNNFGAEPPHQNGECYPNEKNSVNMDLD
B2: Sse1p: active, recombinant purified yeast Hsp110 homolog Sse1p (GenBank NP_015219) (protein)
chain: STPFGLDLGNNNSVLAVARNRGIDIVVNEVSNRSTPSVVGFGPKNRYLGETGKNKQTSNIKNTVANLKRIIGLDYHHPDFEQESKHFTSKLVELDDKKTGAEVRFAGEKHVFSATQLAAMFIDKVKDTVKQDTKANITDVCIAVPPWYTEEQRYNIADAARIAGLNPVRIVNDVTAAGVSYGIFKTDLPEGEEKPRIVAFVDIGHSSYTCSIMAFKKGQLKVLGTACDKHFGGRDFDLAITEHFADEFKTKYKIDIRENPKAYNRILTAAEKLKKVLSANTNAPFSVESVMNDVDVSSQLSREELEELVKPLLERVTEPVTKALAQAKLSAEEVDFVEIIGGTTRIPTLKQSISEAFGKPLSTTLNQDEAIAKGAAFICAIHSPTLRVRPFKFEDIHPYSVSYSWDKQVEDEDHMEVFPAGSSFPSTKLITLNRTGDFSMAASYTDITQLPPNTPEQIANWEITGVQLPEGQDSVPVKLKLRCDPSGLHTIEEAYTIEDIEVEEPIPLPEDAPEDAEQEFKKVTKTVKKDDLTIVAHTFGLDAKKLNELIEKENEMLAQDKLVAETEDRKNTLEEYIYTLRGKLEEEYAPFASDAEKTKLQGMLNKAEEWLYDEGFDSIKAKYIAKYEELASLGNIIRGRYLAKEEEKKQAIRSKQEASQMAAMAEKLAAQRKAEAEKKEEKKDTEGDVDMD

What was measured:
albumin = assay: Albumin secretion from McArdle cells (control); type: cell-based, rat; settings: Hsp110 over-expressed or not
Experimental: (§1) FIGS. 9A and 9B show the effect of Hsp110 over-expression on ApoB100 secretion from McArdle cells, a standard rat hepatoma cell model of lipoprotein metabolism. ApoB100 (FIG. 9A) and albumin (FIG. 9B) biogenesis and secretion were assessed by published pulse-chase analytical methods.
(§2) An Hsp110 expression vector was obtained from Dr. John Subjeck (Roswell Park Cancer Center, N.Y.), and either that vector or a vector control was introduced into McArdle cells—a rat hepatoma cell line that also expresses full-length ApoB (that is, ApoB100). […] As a control, there was no effect on albumin secretion from these cells, regardless of whether Hsp110 was over-expressed (FIG. 9B). Furthermore, the over-expression of Hsp110 in the McArdle cells in the presence of a microsomal triglyceride transfer protein (MTP) inhibitor (BMS-200150; Jamil, H., D. A. Gordon, D. C. Eustice, C. M. Brooks, J. K. Dickson, Jr., Y. Chen, B. Ricci, C.-H. Chu, T. W. Harrity, C. P. Ciosek, Jr., S. A. Biller, R. E. Gregg, and J. R. Wetterau. 1996. An inhibitor of the microsomal triglyceride transfer protein inhibits apoB secretion from HepG2 cells. Proc Natl Acad Sci USA. 93, 11991-95) increased the percent of apoB recovered in the lysate and medium fractions from 14% to 28% (data not shown).

ApoB100 = ApoB100 biogenesis and secretion from McArdle cells (pulse-chase) on Hsp110 over-expression; type: cell-based, rat
Experimental: as §1, §2

ApoB48 = assay: In vitro ApoB48 degradation assay in yeast cytosol with added purified protein; type: biochemical; settings: purified protein added to wild type (SSE1) or delete (sse1) cytosols
Experimental: In vitro Analysis of ApoB Degradation: ^35S methionine labeled ApoB48 was synthesized in the presence of canine pancreatic microsomes (DPM; Promega, Madison, Wis.) using the SP6-TNT Kit (Promega) and plasmid pSPB48 (see above) as previously described (Gusarova, et al., 2001). The reaction mixture was then layered onto 1 mL SH buffer (0.25M sucrose, 5 mM Hepes, pH 7.4) and centrifuged at 100,000g for 30 min at 4° C. The microsomal pellets were resuspended in 12 μl of 2×PH buffer (40 mM HEPES, pH 7.4, 220 mM KCl, 10 mM MgCl2) and pooled. Cytosol, prepared as previously described (McCracken and Brodsky, 1996), was diluted to a specified concentration and pre-incubated with 0.25 mM MG132 (Peptides International) or an equivalent volume of DMSO for 15 min on ice. Following the pre-incubation, cytosol and ApoB48 were mixed 1:1 with these reagents at final concentrations of, 2 mM ATP, 10 mM creatine phosphate, and 100μg/mL creatine phosphokinase. Aliquots of the reaction were incubated at 37° C. for 5, 15 and 30 min or the indicated times and the reaction was quenched by adding an equal volume of 2×Urea Buffer (125 mM Tris, pH 6.8, 4% SDS, 6M Urea, 1 mM EDTA, 10 mM DTT, 250 mM β-mercaptoethanol, 20% Glycerol) and the mixture was heated at 96° C. for 4 min. […] Phosphorimager data was analyzed using Image Gauge software (Fuji Film Science Lab). […]

| Molecule | effect on albumin secretion (albumin) | percent of apoB recovered in the lysate and medium fractions (ApoB100; Hsp110 over-expression in the presence of MTP inhibitor BMS-200150, data not shown) [%] | amount of ApoB100 in cell extracts (ApoB100; especially notable at 30 min time point) | increase in the amount of ApoB 100 secreted (ApoB100; medium, Hsp110 vector vs vector control) [fold] | effect on ApoB48 in vitro (ApoB48) |
| --- | --- | --- | --- | --- | --- |
| B1 | no effect | 28 | concomitant increase | ~2 |  |
| B2 |  |  |  |  | stabilizes ApoB48 |

Source: patent US20070293451A1, “Regulation ao ApoB by Hsp110 proteins and related compositions and methods” (University of Pittsburgh, priority 2006, published 2007)
